# Test results from article PMC3886910 (PLoS Neglected Tropical Diseases, 2014).
# Where two headings read alike, the source gives them in different places.
# Experiments:
# SjCP3842 = target: T1, SjCP3842 (Schistosoma japonicum, UniProt Q6PYV4); test: UV-visible differential spectral titration (Soret […] nm); also hemin-agarose pulldown and heme peroxidase binding assay
# T1 construct: gene CP3842
# [1] = target: SjCP1084, recombinant (Schistosoma japonicum); test: SDS-PAGE and western blot (oligomer bands)
# [2] = target: SjCP1531, recombinant (Schistosoma japonicum); test: SDS-PAGE and western blot (oligomer bands)
# [3] = target: SjCP3842, recombinant (Schistosoma japonicum); test: SEC
# [4] = target: SjCP3842, recombinant (Schistosoma japonicum); test: SDS-PAGE and western blot (oligomer bands)
# [5] = target: native SjCP1084 (Schistosoma japonicum (endogenous in egg and adult worm extracts)); test: SDS-PAGE and immunoblot (oligomer bands)
# [6] = target: native SjCP1531 (Schistosoma japonicum (endogenous in egg and adult worm extracts)); test: SDS-PAGE and immunoblot (oligomer bands)
# [7] = target: native SjCP3842 (Schistosoma japonicum (endogenous in egg and adult worm extracts)); test: SDS-PAGE and immunoblot (oligomer bands)
# [8] = target: native SjCP3842 (Schistosoma japonicum (endogenous in egg and adult worm extracts)); test: SDS-PAGE and immunoblot (oligomer bands); remark: listed apart in the source
compound,measurement,setting,value
C=CC1=C(C)C2=Cc3c(C=C)c(C)c4[n]3[Fe][n]3c(c(C)c(CCC(=O)O)c3=CC3=NC(=C4)C(C)=C3CCC(=O)O)=CC1=N2 [heme],Kd,SjCP3842,1610 nM
"SjCP1084, recombinant (natural protein)",stoichiometry N,[1],4
"SjCP1531, recombinant (natural protein)",stoichiometry N,[2],4
"SjCP3842, recombinant (natural protein)",stoichiometry N,[3],4
same,stoichiometry N,[4],4
native SjCP1084 (natural protein),stoichiometry N,[5],4
native SjCP1531 (natural protein),stoichiometry N,[6],4
native SjCP3842 (natural protein),stoichiometry N,[7],4
same,stoichiometry N,[8],2
